The text below walks through data of the supplement of paper PMC9112550, “Optimization of the antimicrobial peptide Bac7 by deep mutational scanning” (BMC Biology, 2022).
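Also: peptides expressed intracellularly from a pBAD plasmid library in pooled LB shake-flask culture, induced with 0.3% L-arabinose, DNA abundance read by NGS, three biological replicates, DESeq2 with apeglm shrinkage.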

The test system of the series is Escherichia coli TOP10. Put plainly: shrunken log2 fold change of peptide-encoding DNA abundance (4.5 h post-induction vs induction); higher = less antimicrobial activity (less host growth inhibition). The conditions noted are these: time post-induction: 4.5 h; library: site-saturation at positions 5, 18, 19, 20.
For the sequence RRIRYRPPRLPRPRPRPFNWPRP, the “shrunken log2 fold change” value was -0.238.
In the case of RRIRVRPPRLPRPRPRPVHKPRP it was 0.129; in that of RRIRPRPPRLPRPRPRPWHDPRP, -0.112.
In the case of RRIRYRPPRLPRPRPRPILTPRP it was -1.08.
In the case of RRIRDRPPRLPRPRPRPWLCPRP it was -0.0939; in that of RRIRYRPPRLPRPRPRPCKHPRP, -0.0625; in that of RRIRMRPPRLPRPRPRPQLVPRP, 0.00959.
With RRIRDRPPRLPRPRPRPGNDPRP, the “shrunken log2 fold change” value amounted to 0.0652.
In the case of RRIRRRPPRLPRPRPRPHMQPRP it was 0.0237.
In the case of RRIRSRPPRLPRPRPRPWHAPRP it was 0.0362; in that of RRIRKRPPRLPRPRPRPCSFPRP, -0.397.
In the case of RRIRKRPPRLPRPRPRPAIQPRP it was 0.396.
Regarding RRIRYRPPRLPRPRPRPPNDPRP, the “shrunken log2 fold change” value was -0.151.
In the case of RRIRARPPRLPRPRPRPGTYPRP it was -0.257; in that of RRIRIRPPRLPRPRPRPAWGPRP, 0.0665.
In the case of RRIRKRPPRLPRPRPRPNHHPRP it was -0.182.
With RRIRGRPPRLPRPRPRPGLNPRP the figure was 4.08; with RRIRFRPPRLPRPRPRPGAIPRP, -0.244.
Turning to RRIRIRPPRLPRPRPRPTSTPRP, the “shrunken log2 fold change” value is -0.0986.
With RRIRARPPRLPRPRPRPPYQPRP the figure was 0.171; with RRIRDRPPRLPRPRPRPEFLPRP, 0.0745; with RRIRYRPPRLPRPRPRPLFKPRP, -0.646.
In the case of RRIRARPPRLPRPRPRPNEKPRP it was -0.0878; in that of RRIRVRPPRLPRPRPRPRFTPRP, -0.0651; in that of RRIRVRPPRLPRPRPRPLAHPRP, 0.00485.
Consider RRIRKRPPRLPRPRPRPDRAPRP, for which the “shrunken log2 fold change” value was 0.115.
With RRIRDRPPRLPRPRPRPLNGPRP the figure was -0.00962; with RRIRDRPPRLPRPRPRPKQHPRP, 0.0788; with RRIRVRPPRLPRPRPRPHAHPRP, -0.256.
In the case of RRIRCRPPRLPRPRPRPHCSPRP it was -0.769; in that of RRIRWRPPRLPRPRPRPGDGPRP, 0.881.
In the case of RRIRQRPPRLPRPRPRPKITPRP it was -0.0282.
Take RRIRWRPPRLPRPRPRPQIYPRP: the “shrunken log2 fold change” value was -0.000758.
RRIRFRPPRLPRPRPRPIHDPRP: the “shrunken log2 fold change” value is -0.211.
In the case of RRIRIRPPRLPRPRPRPLVLPRP it was -0.458.
In the case of RRIRWRPPRLPRPRPRPQCPPRP it was -0.357.
In the case of RRIRNRPPRLPRPRPRPVEMPRP it was 0.0554; in that of RRIRDRPPRLPRPRPRPGVMPRP, 0.521.
Consider RRIRQRPPRLPRPRPRPKKDPRP, for which the “shrunken log2 fold change” value is -0.184.
With RRIRDRPPRLPRPRPRPYKHPRP the figure was -1.13; with RRIRCRPPRLPRPRPRPVNLPRP, 2.47.
With RRIRARPPRLPRPRPRPLTSPRP the figure was 0.209; with RRIRWRPPRLPRPRPRPCRMPRP, -0.0166; with RRIRWRPPRLPRPRPRPCEEPRP, 0.0489.
In the case of RRIRARPPRLPRPRPRPKISPRP it was 0.173; in that of RRIRYRPPRLPRPRPRPGRCPRP, -0.102; in that of RRIRTRPPRLPRPRPRPPYLPRP, -0.365.
Take RRIRERPPRLPRPRPRPRTHPRP: the “shrunken log2 fold change” value is -0.574.
RRIRQRPPRLPRPRPRPPRPPRP: the “shrunken log2 fold change” value is 0.752.
With RRIRFRPPRLPRPRPRPPWGPRP the figure was 0.399; with RRIRRRPPRLPRPRPRPSRRPRP, -0.0701.
With RRIRHRPPRLPRPRPRPDYDPRP the figure was -0.278.
With RRIRRRPPRLPRPRPRPLCHPRP, the “shrunken log2 fold change” value was 0.182.
As for RRIRARPPRLPRPRPRPCEIPRP, the “shrunken log2 fold change” value worked out at 0.196.
With RRIRMRPPRLPRPRPRPTVCPRP the figure was 0.53.
With RRIRKRPPRLPRPRPRPEIGPRP the figure was 0.191.
With RRIRSRPPRLPRPRPRPICMPRP the figure was 0.177; with RRIRVRPPRLPRPRPRPVKKPRP, 0.02; with RRIRCRPPRLPRPRPRPYIMPRP, -1.48.
Take RRIRLRPPRLPRPRPRPELHPRP: the “shrunken log2 fold change” value was found to be 0.327.
With RRIRLRPPRLPRPRPRPLETPRP the figure was -0.0757.
With RRIRMRPPRLPRPRPRPSYQPRP the figure was -0.115.
With RRIRWRPPRLPRPRPRPHNIPRP the figure was -0.691; with RRIRYRPPRLPRPRPRPWDAPRP, -0.796; with RRIRFRPPRLPRPRPRPSQVPRP, -0.398.
Consider RRIRYRPPRLPRPRPRPRGDPRP, for which the “shrunken log2 fold change” value was 0.316.
In the case of RRIRFRPPRLPRPRPRPARPPRP it was 0.287; in that of RRIRFRPPRLPRPRPRPFCFPRP, -0.343; in that of RRIRRRPPRLPRPRPRPWHTPRP, -0.456.
In the case of RRIRARPPRLPRPRPRPGGEPRP, the “shrunken log2 fold change” value came out at 0.694.
In the case of RRIRFRPPRLPRPRPRPRAFPRP it was 0.0447; in that of RRIRERPPRLPRPRPRPYISPRP, -0.977; in that of RRIRRRPPRLPRPRPRPNCIPRP, 0.104.
With RRIRLRPPRLPRPRPRPNHGPRP the figure was -0.17.
In the case of RRIRGRPPRLPRPRPRPHPKPRP it was 0.865; in that of RRIRARPPRLPRPRPRPNPPPRP, 0.458.
For the sequence RRIRERPPRLPRPRPRPHHDPRP, the “shrunken log2 fold change” value was -0.578.
In the case of RRIRIRPPRLPRPRPRPCIEPRP it was -0.112; in that of RRIRHRPPRLPRPRPRPTTTPRP, -0.0186.
Turning to RRIRWRPPRLPRPRPRPIEKPRP, the “shrunken log2 fold change” value is -0.221.
With RRIRKRPPRLPRPRPRPIFSPRP the figure was -0.143.
With RRIRHRPPRLPRPRPRPRSLPRP the figure was 0.295; with RRIRVRPPRLPRPRPRPAVPPRP, 0.0151; with RRIRYRPPRLPRPRPRPDINPRP, -0.162.
For the sequence RRIRERPPRLPRPRPRPHMGPRP, the “shrunken log2 fold change” value was -0.00822.
In the case of RRIRHRPPRLPRPRPRPSKWPRP it was -0.452; in that of RRIRPRPPRLPRPRPRPIASPRP, -0.0044.
In the case of RRIRKRPPRLPRPRPRPFSQPRP it was -0.151; in that of RRIRWRPPRLPRPRPRPMKIPRP, -0.0129.
In the case of RRIRGRPPRLPRPRPRPPWNPRP it was 0.411; in that of RRIRYRPPRLPRPRPRPHEDPRP, -0.172.
